Assay [1] addresses T1, RBD antigen (SARS-CoV-2 receptor-binding domain) (SARS-CoV-2, variant  …, UniProt P0DTC2).
T1 construct: source: provided by R. Strong (Fred Hutchinson Cancer Institute)
The assay is described as follows: ELISA. Background: ELISA stands for enzyme-linked immunosorbent assay.

Assay [2] has as its target T2, MBP–FlaA (C. jejuni flagellin FlaA, amino acids 177–482) (Campylobacter jejuni, flagellin A …, biotinylated (EZ-Link NGS-PEG4-Biotin kit) in the BLI).
T2 construct: The biotinylated form was used for BLI; The ELISA methods name the coating protein only as recombinant FlaA; also called recombinant FlaA; recombinant C. jejuni flagellin; source: E. coli BL-21(DE3), purified (Amylose Resin); not shown: MBP, N-terminal, kept
T2 chain: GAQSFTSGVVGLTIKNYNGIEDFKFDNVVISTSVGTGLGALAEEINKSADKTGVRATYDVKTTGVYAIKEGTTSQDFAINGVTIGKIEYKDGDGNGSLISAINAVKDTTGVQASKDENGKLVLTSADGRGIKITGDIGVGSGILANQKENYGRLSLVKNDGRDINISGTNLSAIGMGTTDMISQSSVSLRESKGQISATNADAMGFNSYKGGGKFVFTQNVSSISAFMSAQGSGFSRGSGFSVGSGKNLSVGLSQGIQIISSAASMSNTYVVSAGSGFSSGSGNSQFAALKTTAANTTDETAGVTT
The experiment in a line: BLI; Octet Red96e; biotinylated MBP–FlaA loaded at 100 nM on streptavidin biosensors; purified aa682 from 1 μM to 10 nM in PBS with 1% BSA and 0.05% Tween-20; association 20 s, dissociation 140 s; global fit, 1:1 model. To be noted: both partners purified. For orientation: BLI is a label-free optical method that tracks binding on a fibre tip over time.

These results are taken from PMC9200632, “Development of spirulina for the manufacture and oral delivery of protein therapeutics” (Nature Biotechnology, 2022).

The EC50 is the concentration that produces a half-maximal response. High values mean weaker potency, low ones greater potency. In general, Kd refers to a measure of binding affinity in units of concentration. Lower therefore signals higher affinity.

B1: PP622, monomeric RBD-binding VHH (VHH-72), E. coli-expressed and purified (VHH)
VHH: QVQLQESGGGLVQAGGSLRLSCAASGRTFSEYAMGWFRQAPGKEREFVATISWSGGSTYYTRSVKGRFTISRDNAKNTVYLQMNSLKPDDTAVYYCAAAGLGTVVSEWDYDYDYWGQGTQVTVSS
notes: also called monomeric VHH; source: E. coli, purified (IMAC)
In assay [1] (both partners purified), B1 came in with an EC50 of 18.3 nM.

B2: monomeric RBD-binding VHH (VHH-72) in extract of spirulina strain SP1464 (VHH)
VHH: B1 VHH
notes: also called monomeric VHH, extract; source: spirulina strain SP1464, in extract
For B2, a half-maximal response in assay [1] (one partner purified) (EC50) required 52.3 nM.

B3: dimeric RBD-binding VHH (VHH-72 on the 5HVZ scaffold) in extract of spirulina strain SP1477 (VHH)
VHH: B1 VHH
notes: as the dimerization motif of m5, named only by its PDB entry 5HVZ; also called dimeric VHH, extracted form; source: spirulina strain SP1477, in extract
As for B3, the EC50 in assay [1] (one partner purified) was determined as 1.29 nM.

B4: PP661, dimeric RBD-binding VHH (VHH-72 on the 5HVZ scaffold), E. coli-expressed and purified (VHH)
VHH: B1 VHH
notes: also called dimeric VHH; source: E. coli, purified (IMAC)
In assay [1] (both partners purified), B4 showed an EC50 of 0.32 nM.

B5: aa682 (VHH)
VHH: QVQLVESGGGLVQAGGSLRVSCTASVSTFSINALGWYRQAPGKARELVAAIGSDGTVYYTDSVKGRFTISRDNAKNTVSLQMSSLKPEDTAVYYCNAAGKRIGSDGSIWFAVASFGSWGQGTQVTVSS
notes: N-terminal methionine removed (intact mass); Monovalent VHH-MBP fusion, predicted MW 54.8 kDa
As for B5, the Kd in assay [2] came to 53 nM.
